# Experimental data from patent publication US20210214458A1 (ONCOC4, published 2021).
# Legend:
# [1] = target: T1, CD24-GST fusion protein; assay: ELISA on coated CD24-GST with expression media, relative to chimeric PP6373 (FIG. 28)
# T1 construct: also called biotinylated CD24-GST; not shown: GST (glutathione S-transferase) fusion partner
# Protocol: To select the best working combination of HuVH and HuVL for CD24 binding, different combinations were co-transfected into 293 cells for 72 hrs. Two ELISAs are then performed with expression media. ELISA 1: a 96 well plate was coated with purified goat-anti-human polyclonal IgG (GAH) and, after blocking, expression media or purified control IgGs were added, and goat-anti-human IgG-HRP was used as detection antibody. ELISA 2: a 96 well plate was coated with CD24-GST protein and, after blocking, expression media or purified control IgGs were added, and goat-anti-human IgG-HRP was used as detection antibody.
# [2] = target: T2, N-SA-CD24 (CD24 stripped of N-glycan and sialic acid modifications) (not fully specified; N-glycans and sialic acid removed; O-glycans present; biotinylated in the Jurkat bispecific assays); assay: ELISA titration on coated Fc removed CD24 treated with NanA + N-glycanase (FIG. 8)
# T2 construct: also called SA-N-CD24; SA-N-
# T2 chain: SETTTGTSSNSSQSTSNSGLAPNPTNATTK
binder,measurement,setting,value
"H1L3 (humanized PP6373) (antibody, V domains shown, Tested as expression medium of co-transfected 293 cells) VH: EVQFVESGGGLVQPGGSLKLSCAASGVTFSEAWMDWVRQASGKGLEWVGEIRDKPNSYVTYYAESVKGRFTISRDDSKNTAYLQMNSLKTEDTAVYYCTGAMDYWGQGTLVTVSS VL: DIVMTQTPLSLSVTIGQPASISCKSSQSLLYSNGKTYLNWLLQKPGQSPKRLIYQVSKLDPGIPDRFSGSGSETDFTLKISRVEAEDVGIYYCMQGSSLPWTFGGGTKVEIKR",binding result,[1],binds
"H4L3 (humanized PP6373) (antibody, V domains shown, Tested as expression medium of co-transfected 293 cells) VH: EVQFVESGGGLVQPGGSLKLSCAASGVTFSEAWMDWVRQASGKGLEWVAEIRDKPNSYVTYYAESVKGRFTISRDDSKSTVYLQMNSLKTEDTAIYYCTGAMDYWGQGTLVTVSS VL: DIVMTQTPLSLSVTIGQPASISCKSSQSLLYSNGKTYLNWLLQKPGQSPKRLIYQVSKLDPGIPDRFSGSGSETDFTLKISRVEAEDVGIYYCMQGSSLPWTFGGGTKVEIKR",binding result,[1],binds
"PP6373 (affinity matured chimeric anti-CD24 antibody) (antibody, human IgG1, kappa, V domains shown, also called P3050.ComF1.2H1; H4069 + L4071) VH: EVKFEESGGGLVQPGGSIKLSCAASGVTFSEAWMDWVRQSPEKGLEWVAEIRDKPNSYVTYYAESVKGRFTISRDDSKSRVYLQMNNLRTEDTGIYYCTGAMDYWGQGTSVTVSS VL: DIVMTQTPLSLSVTIGQPASISCKSSQSLLYSNGKTYLNWLQQRPGQSPKRLIYQVSKLDPGIPDRFSGSGSETDFTLKISRVEAEDLGIYYCMQGSSLPWTFGGGTKLEIKR",fold increase of binding against the parental antibody,[2],~100 fold
